In paper doi:10.1101/2024.05.01.592117:

Tests used:
[1] = target: 43S preinitiation complex (40S + eIFs 1, 1A, 5, 3j, eIF2-TC and eIF3) (human) (UniProt P23396); assay: native gel or EMSA
[2] = target: 43S preinitiation complex (40S + eIFs 1, 1A, 5, 3j, eIF2-TC and eIF3) (human) (UniProt P23396); assay: fluorescence polarisation
[3] = target: 40S small ribosomal subunit (salt-washed, purified) (human) (UniProt P23396); assay: fluorescence polarisation

Chain of fluorescence-labeled Pdcd4-NTD (FL-Pdcd4-NTD, residues 1-156) (Q53EL6 1-156): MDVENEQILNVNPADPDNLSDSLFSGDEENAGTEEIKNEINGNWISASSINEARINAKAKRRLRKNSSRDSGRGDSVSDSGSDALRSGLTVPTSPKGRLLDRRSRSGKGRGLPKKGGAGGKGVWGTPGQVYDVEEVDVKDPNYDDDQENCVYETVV
Chain of Pdcd4 (programmed cell death 4), wild type, residues 1-469 (Q53EL6 whole entry, the tested form may be a part): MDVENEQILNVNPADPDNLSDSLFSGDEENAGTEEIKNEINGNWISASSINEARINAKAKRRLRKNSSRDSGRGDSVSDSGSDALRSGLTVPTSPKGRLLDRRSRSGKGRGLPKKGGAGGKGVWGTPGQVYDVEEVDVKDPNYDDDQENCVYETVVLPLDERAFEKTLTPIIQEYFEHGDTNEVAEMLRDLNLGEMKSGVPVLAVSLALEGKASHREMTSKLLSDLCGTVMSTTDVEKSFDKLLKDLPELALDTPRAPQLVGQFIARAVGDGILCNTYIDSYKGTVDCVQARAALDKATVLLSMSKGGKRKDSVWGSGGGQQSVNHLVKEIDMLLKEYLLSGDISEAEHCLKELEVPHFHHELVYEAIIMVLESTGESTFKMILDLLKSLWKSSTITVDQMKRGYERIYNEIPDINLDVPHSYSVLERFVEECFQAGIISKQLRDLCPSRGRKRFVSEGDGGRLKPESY
Chain of fluorescence-labeled full-length Pdcd4 (FL-Pdcd4) (Q53EL6 whole entry): as the sequence (Q53EL6 whole entry, the tested form may be a part) above
Chain of Pdcd4-NTD (residues 1-156), unlabeled (Q53EL6 1-156): as the sequence (Q53EL6 1-156) above

Substance	percent binding compared to the 40S (lane 2) [1]	fold reduction in affinity against the 40S alone [2]	fold reduction in affinity against the 40S alone [3]	Ki [3]
fluorescence-labeled Pdcd4-NTD (FL-Pdcd4-NTD, residues 1-156) (from UniProt Q53EL6 1-156) (domain or fragment)	< 20%	> 100 fold	> 10 fold	–
Pdcd4 (programmed cell death 4), wild type, residues 1-469 (from UniProt Q53EL6 1-469) (natural protein)	–	–	–	0.023 µM
fluorescence-labeled full-length Pdcd4 (FL-Pdcd4) (from UniProt Q53EL6 1-469) (natural protein)	< 20%	–	–	–
Pdcd4-NTD (residues 1-156), unlabeled (from UniProt Q53EL6 1-156) (domain or fragment)	–	–	–	0.021 µM
